From patent US20060239990A1 (published 2006)

B3: HA-tagged PRMT2 (human Protein Arginine N-Methyltransferase 2, expressed from pVR1012-PRMT2-HA) (enzyme)
chain: MATSGDCPRSESQGEEPAECSEAGLLQEGVQPEEFVAIADYAATDETQLSFLRGEKILILRQTTADWWWGERAGCCGYIPANHVGKHVDEYDPEDTWQDEEYFGSYGTLKLHLEMLADQPRTTKYHSVILQNKESLTDKVILDVGCGTGIISLFCAHYARPRAVYAVEASEMAQHTGQLVLQNGFADIITVYQQKVEDVVLPEKVDVLVSEWMGTCLLFEFMIESILYARDAWLKEDGVIWPTMAALHLVPCSADKDYRSKVLFWDNAYEFNLSALKSLAVKEFFSKPKYNHILKPEDCLSEPCTILQLDMRTVQISDLETLRGELRFDIRKAGTLHGFTAWFSVHFQSLQEGQPPQVLSTGPFHPTTHWKQTLFMMDDPVPVHTGDVVTGSVVLQRNPVWRRHMSVALSWAVTSRQDPTSQKVGEKVFPIWR
notes: Expressed by transient transfection in 293 or Saos 2 cells; also called HA-PRMT2; not shown: HA tag at the C-terminus

Tests used:
[1] = target: B3; assay: immunoprecipitation with anti-HA antibody from transfected 293 cells, immunoblot for endogenous IκB-α
Excerpt: (§1) To map IκB-α domains that interacted with PRMT2, 293 cells were transfected with HA-tagged PRMT2 (FIG. 5C) and His-tagged derivatives of the indicated IκB-α expression vectors (FIG. 5B) as indicated. 24 hrs later cells were harvested in cell lysis buffer and cell lysates were immunoprecipitated with agarose-conjugated antibody to His (IκB-α) (FIG. 5D, lanes 1-4) and HA (PRMT2) (FIG. 5D, lanes 5-6), fractionated by SDS-PAGE and analyzed by immunoblotting with antibody to HA to detect PRMT2 ((FIG. 5D lanes 1, 2 and lanes 5, 6) and His (FIG. 5D, lanes 3, 4). To map the region of PRMT2 that interacted with endogenous IκB-α and p65, 293 cells were transfected with HA-tagged PRMT2 (FIG. 5C) derivatives as indicated. Cells were harvested 24 hrs after transfection in cell lysis buffer, immunoprecipitated with agarose-conjugated antibody to HA to detect PRMT2 and derivatives (FIG. 5E, lanes 7-15), fractionated by SDS-PAGE and analyzed by immunoblotting with antibody to p65 (FIG. 5E, lanes 7-9), IκB-α (FIG. 5E, lanes 10-12) or HA (FIG. 5E, lanes 13-15).
A polyclonal antibody to recombinant PRMT2 was used to examine the association between endogenous PRMT2 and IκB-α in vivo. […] The domain of IκB-α required for association with PRMT2 was mapped using in vivo immunoprecipitation assays where HA-tagged PRMT2 was coexpressed with truncation mutants of His-tagged IκB-α (FIG. 5B) in 293 cells. […]

[2] = target: T1, STAT3, endogenous in HEK293 cells (human, UniProt P40763 2-770); assay: immunoprecipitation with anti-Flag antibody from transfected HEK293 cells, immunoblot
T1 construct: also called endogenous STAT3
T1 sequence (P40763 2-770 limits assumed): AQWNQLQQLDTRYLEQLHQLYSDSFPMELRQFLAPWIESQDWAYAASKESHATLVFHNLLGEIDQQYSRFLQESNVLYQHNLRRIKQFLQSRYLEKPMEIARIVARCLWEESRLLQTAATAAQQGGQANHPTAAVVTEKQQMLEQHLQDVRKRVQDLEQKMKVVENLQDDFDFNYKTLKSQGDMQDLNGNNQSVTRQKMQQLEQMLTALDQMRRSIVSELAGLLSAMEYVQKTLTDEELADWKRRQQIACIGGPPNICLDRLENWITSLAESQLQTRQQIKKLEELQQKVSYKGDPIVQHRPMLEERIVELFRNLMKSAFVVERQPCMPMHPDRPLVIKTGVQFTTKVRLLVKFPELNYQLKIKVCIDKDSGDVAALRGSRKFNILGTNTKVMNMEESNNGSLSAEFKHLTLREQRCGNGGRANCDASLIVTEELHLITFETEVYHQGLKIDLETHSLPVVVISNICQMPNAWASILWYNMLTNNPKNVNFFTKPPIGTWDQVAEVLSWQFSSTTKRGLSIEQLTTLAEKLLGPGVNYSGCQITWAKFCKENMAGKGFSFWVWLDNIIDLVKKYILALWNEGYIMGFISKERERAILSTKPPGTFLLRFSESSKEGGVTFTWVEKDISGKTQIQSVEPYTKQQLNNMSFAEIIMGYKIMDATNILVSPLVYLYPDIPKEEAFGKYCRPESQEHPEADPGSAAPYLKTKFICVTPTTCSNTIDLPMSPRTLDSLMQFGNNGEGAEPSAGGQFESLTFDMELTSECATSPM
Method: (§2) To examine whether a direct interaction occurs between PRMT-2 and STAT3 in vivo, FLAG-tagged full-length PRMT-2 cDNA and/or STAT3 cDNA were transiently transfected into HEK293 cells. After culturing the transfected cells, an immunoprecipitation was performed on cell lysates using anti-Flag antibodies followed by immunoblotting with anti-PRMT-2 antibody. […] Identical results were observed when using anti-STAT3 antibodies for immunoprecipitation (data not shown).

[3] = target: mouse STAT3 (endogenous in GT1-7 cells and VSMC, or expressed from mouse STAT3 pcDNA3 in HEK293 cells) (mouse, UniProt P42227 2-770); assay: immunoprecipitation with anti-Flag antibody from HEK293 cells transfected with PRMT-2-Flag and STAT3, immunoblot
mouse STAT3 (endogenous in GT1-7 cells and VSMC, or expressed from mouse STAT3 pcDNA3 in HEK293 cells), sequence (P42227 2-770 limits assumed): as the sequence (P40763 2-770 limits assumed) above, with E759D counted along it
Method: as §2

[4] = target: T2, RelA (p65) in 293 cells (UniProt Q04206 1-551); assay: immunoprecipitation with anti-HA antibody from transfected 293 cells, immunoblot for p65
T2 construct: also called endogenous p65
T2 sequence (Q04206 whole entry): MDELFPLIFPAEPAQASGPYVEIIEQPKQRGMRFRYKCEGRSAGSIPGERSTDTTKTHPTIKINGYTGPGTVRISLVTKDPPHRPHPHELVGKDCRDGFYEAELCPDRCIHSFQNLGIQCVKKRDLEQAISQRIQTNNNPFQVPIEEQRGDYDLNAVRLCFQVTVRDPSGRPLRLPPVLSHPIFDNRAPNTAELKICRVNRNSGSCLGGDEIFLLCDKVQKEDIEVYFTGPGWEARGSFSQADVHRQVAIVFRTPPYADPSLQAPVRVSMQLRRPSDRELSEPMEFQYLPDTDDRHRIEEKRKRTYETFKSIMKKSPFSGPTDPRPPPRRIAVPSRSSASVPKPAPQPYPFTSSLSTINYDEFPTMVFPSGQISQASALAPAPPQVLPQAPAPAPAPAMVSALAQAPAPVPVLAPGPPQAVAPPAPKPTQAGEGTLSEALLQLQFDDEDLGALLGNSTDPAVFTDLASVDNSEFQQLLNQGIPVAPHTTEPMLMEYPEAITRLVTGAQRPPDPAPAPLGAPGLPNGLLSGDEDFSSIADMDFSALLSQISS
Excerpt: as §1
A polyclonal antibody to recombinant PRMT2 was used to examine the association between endogenous PRMT2 and IκB-α in vivo. […] The domain of IκB-α required for association with PRMT2 was mapped using in vivo immunoprecipitation assays where HA-tagged PRMT2 was coexpressed with truncation mutants of His-tagged IκB-α (FIG. 5B) in 293 cells. The ankyrin domain was both necessary and sufficient for this association (FIG. 5D, lanes 1 and 2). The domain of PRMT2 that interacted with endogenous IκB-α was mapped by immunoprecipitation following expression HA-tagged PRMT2 truncation mutants (FIG. 5C). […] When the ratios of PRMT2 or PRMT2-A binding to IκB-α were compared, both interacted with IκB-α with similar affinity.

[5] = target: T3, retinoblastoma protein (RB), endogenous in cultured cell lines (293, U2OS) (human, UniProt P06400 2-928); assay: immunoprecipitation of endogenous RB from 293 cells transfected with HA-tagged PRMT2, Western blot with anti-HA antibody
T3 construct: also called endogenous RB
T3 sequence (looked up): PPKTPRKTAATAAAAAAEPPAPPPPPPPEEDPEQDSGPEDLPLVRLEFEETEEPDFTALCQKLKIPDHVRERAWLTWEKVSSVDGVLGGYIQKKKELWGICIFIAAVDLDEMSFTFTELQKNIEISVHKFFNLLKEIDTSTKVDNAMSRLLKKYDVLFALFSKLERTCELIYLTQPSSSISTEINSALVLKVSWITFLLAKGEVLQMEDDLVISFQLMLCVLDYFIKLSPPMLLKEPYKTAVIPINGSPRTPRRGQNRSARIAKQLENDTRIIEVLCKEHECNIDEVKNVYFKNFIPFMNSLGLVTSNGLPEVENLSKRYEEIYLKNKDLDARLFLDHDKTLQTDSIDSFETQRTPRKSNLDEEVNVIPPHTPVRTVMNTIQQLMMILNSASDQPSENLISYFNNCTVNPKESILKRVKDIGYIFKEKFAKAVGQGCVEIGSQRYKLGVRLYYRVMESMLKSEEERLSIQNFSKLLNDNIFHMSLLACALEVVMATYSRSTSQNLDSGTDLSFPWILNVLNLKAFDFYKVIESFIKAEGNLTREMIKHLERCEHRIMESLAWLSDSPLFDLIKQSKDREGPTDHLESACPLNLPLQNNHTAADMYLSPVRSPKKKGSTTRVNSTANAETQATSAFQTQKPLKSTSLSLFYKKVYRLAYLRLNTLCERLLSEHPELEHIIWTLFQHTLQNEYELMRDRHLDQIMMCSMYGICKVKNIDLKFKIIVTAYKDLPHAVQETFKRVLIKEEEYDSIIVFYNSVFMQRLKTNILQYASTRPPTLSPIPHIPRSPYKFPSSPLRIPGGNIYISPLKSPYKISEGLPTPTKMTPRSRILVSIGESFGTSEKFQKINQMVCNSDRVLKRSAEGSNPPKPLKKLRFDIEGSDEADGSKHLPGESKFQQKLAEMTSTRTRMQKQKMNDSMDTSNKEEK
Method: FIG. 8A-C illustrate that PRMT2 interacts with retinoblastoma protein (RB). […] GST-RB and GST were bound to glutathione sepharose beads and incubated with S³⁵-labeled in vitro translated PRMT1, PRMT2, PRMT3, and PRMT4. Co-precipitated labeled PRMTs were analyzed by SDS-PAGE. […] HA-tagged PRMT2 (+) or control vectors (−) were transfected in 293 cells. Cell lysates were immunoprecipitated with rabbit RB antibodies or IgG and followed by Western blot analysis using mouse HA and RB antibodies (upper panel). A Western blot using mouse HA antibodies detects HA-tagged PRMT2 (lower panel).
The interaction of PRMT2 with RB was then analyzed in vivo. HA-tagged PRMT2 expression vectors or control vectors were transfected into 293 cells, and immunoprecipitation of endogenous RB was followed by a Western blot analysis using an anti-HA antibody. PRMT2 directly interacted with RB in contrast to control vectors (FIG. 8C).

B1: IκB-α, endogenous in 293 cells (other, human, UniProt P25963 1-317, looked up)
chain: MFQAAERPQEWAMEGPRDGLKKERLLDDRHDSGLDSMKDEEYEQMVKELQEIRLEPQEVPRGSEPWKQQLTEDGDSFLHLAIIHEEKALTMEVIRQVKGDLAFLNFQNNLQQTPLHLAVITNQPEIAEALLGAGCDPELRDFRGNTPLHLACEQGCLASVGVLTQSCTTPHLHSILKATNYNGHTCLHLASIHGYLGIVELLVSLGADVNAQEPCNGRTALHLAVDLQNPDLVSLLLKCGADVNRVTYQGYSPYQLTWGRPSTRIQQQLGQLTLENLQMLPESEDEESYDTESEFTEFTEDELPYDDCVFGGQRLTL
notes: also called endogenous IκB-α
Does B1 bind [1]?
Result: binds

B2: mouse PRMT2-Flag (FLAG-tagged full-length PRMT-2) (enzyme, UniProt Q9R144 1-448, looked up)
chain: MEAPGEGPCSESQVIPVLEEDPVDYGCEMQLLQDGAQLQLQLQPEEFVAIADYTATDETQLSFLRGEKILILRQTTADWWWGERAGCCGYIPANHLGKQLEEYDPEDTWQDEEYFDSYGTLKLHLEMLADQPRTTKYHSVILQNKESLKDKVILDVGCGTGIISLFCAHHARPKAVYAVEASDMAQHTSQLVLQNGFADTITVFQQKVEDVVLPEKVDVLVSEWMGTCLLFEFMIESILYARDTWLKGDGIIWPTTAALHLVPCSAEKDYHSKVLFWDNAYEFNLSALKSLAIKEFFSRPKSNHILKPEDCLSEPCTILQLDMRTVQVPDLETMRGELRFDIQKAGTLHGFTAWFSVYFQSLEEGQPQQVVSTGPLHPTTHWKQTLFMMDDPVPVHTGDVVHGFCCVTKKSGMEKAHVCLSELGCHVRTRSHVSTELETGSFRSGGDS
notes: Printed both as PRMT2-Flag and as Flag-PRMT2, so the end that carries the tag is uncertain; Expressed in HEK293 cells; also called Flag-PRMT2; Flag PRMT2 fusion protein; not shown: Flag tag
Does B2 bind [2]?
Result: binds

Does B2 bind [3]?
Result: binds

Does B3 bind [4]?
Result: no binding

Does B3 bind [5]?
Result: binds
